One assay deals with Sgo1_(1–130) (human) (UniProt Q5FBB7). As to the kind of experiment: ITC; Survivin or CPC (monomer concentration) injected into Sgo1 constructs, 20°C; 50 mM Hepes pH 8, 150 mM NaCl, 5% glycerol, 1 mM TCEP; standard 1:1 binding model. On the technique in general: In ITC the heat of successive injections is recorded.
A further assay concerns the target Sgo1_(1–155) (human) (UniProt Q5FBB7). Described as above.
Assay [1] concerns the target Sgo1_(1–415) (human) (UniProt Q5FBB7). The description is as above.
For assay [2] the target is unchanged. The assay is described as follows: mass photometry; samples cross-linked with 0.01% glutaraldehyde 5 min at 4°C, quenched with Tris; 20 nM measured in 25 mM Hepes pH 8, 250 mM NaCl, 2 mM DTT.
For assay [3] the target is unchanged. The assay is described as follows: ITC; 100 μM CPC injected into 10 μM Sgo1 1-415 or 1-415 4A, 20°C; 50 mM Hepes pH 8, 250 mM NaCl, 5% glycerol, 1 mM TCEP, 0.005% Tween; standard 1:1 binding model.
The target in another assay is Sgo1_(1–415 4A) (human) (UniProt Q5FBB7). Described as above.
The target of a further assay is Borealin (endogenous) (UniProt Q53HL2). The assay is described as follows: LacO-LacI tethering assay, immunofluorescence in U-2 OS-LacO Haspin CM cells. The conditions noted are these: n = 22 (parent), red bar = mean, parent: est. 1.5, read off a plot.
The target in a further assay is Aurora B (endogenous) (UniProt Q96GD4). The description is as above. The conditions noted are these: n = 17 (parent), red bar = mean, parent: est. 3.5, read off a plot.
Aurora B (endogenous), sequence (Q96GD4 whole entry): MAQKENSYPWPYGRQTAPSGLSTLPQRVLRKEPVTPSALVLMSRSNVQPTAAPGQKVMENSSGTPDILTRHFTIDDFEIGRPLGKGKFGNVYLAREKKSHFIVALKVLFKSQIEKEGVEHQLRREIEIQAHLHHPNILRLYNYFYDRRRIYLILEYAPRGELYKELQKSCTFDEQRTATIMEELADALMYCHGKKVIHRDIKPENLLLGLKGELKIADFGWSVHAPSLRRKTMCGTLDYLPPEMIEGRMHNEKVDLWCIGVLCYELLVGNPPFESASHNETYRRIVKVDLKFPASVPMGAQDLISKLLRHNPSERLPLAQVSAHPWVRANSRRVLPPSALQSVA

With “CPC_(ISB10–221) (INCENP_(1–58), Survivin, Borealin_(10–221)) (from UniProt Q9NQS7 1-58; O15392 1-142; Q53HL2 10-221) (complex)”, in the assay with Sgo1_(1–130) (human), the Kd (in general, the free concentration of one partner at which half of the binding sites on the other are occupied at equilibrium, for simple one-to-one binding) turned out to be 163 nM.
In the assay with Sgo1_(1–155) (human), “CPC_(ISB10–280 H80A) (from UniProt Q9NQS7 1-58; O15392 1-142; Q53HL2 10-280) (complex)” returned a Kd of 112 nM.
Substance “CPC_(ISB10–280 K62A) (from UniProt Q9NQS7 1-58; O15392 1-142; Q53HL2 10-280) (complex)” showed a Kd with Sgo1_(1–155) (human) of 42.4 nM.
As for “CPC_(ISB10–280) (INCENP_(1–58), Survivin full length, Borealin_(10–280)) (from UniProt Q9NQS7 1-58; O15392 1-142; Q53HL2 10-280) (complex)”, the Kd was 57.4 nM with Sgo1_(1–130) (human); 52.8 nM with Sgo1_(1–415) (human) [1]; 71.2 nM with Sgo1_(1–155) (human); 151 nM in the assay with Sgo1_(1–415) (human) [3]; 112 nM with Sgo1_(1–415 4A) (human). In the assay with Sgo1_(1–415) (human) [1], the dH is -6.58 kcal/mol. The stoichiometry N (in general, the number of molecules, sites or subunits per partner or assembly) was 1 with Sgo1_(1–415) (human) [1] and 1 ratio (2:2) in the assay with Sgo1_(1–415) (human) [2].
Substance “Sgo1_(1–415) (from UniProt Q5FBB7 1-415) (domain or fragment)” came in with a stoichiometry N with Sgo1_(1–415) (human) [2] of 2.
In the case of Sgo1_(1–527)-LacI-GFP Nmut, the response in the assay with Borealin (endogenous) (n = 23 (mutant)) turned out to be 0.6 a.u; in the assay with Aurora B (endogenous) (n = 14 (mutant)), 2.3 a.u.
Consider “Sgo1_(1–527)-LacI-GFP Nmut; V188A; S189A; V190A; R191A”, for which the response in the assay with Borealin (endogenous) (n = 22 (mutant)) worked out at 0.28 a.u; in the assay with Aurora B (endogenous) (n = 22 (mutant)), 0.4 a.u.
“Sgo1_(1–527)-LacI-GFP V188A; S189A; V190A; R191A”: the response in the assay with Aurora B (endogenous) (n = 19 (mutant)) came out at 1.6 a.u.
Regarding “Survivin full length (from UniProt O15392 1-142) (natural protein)”, the Kd with Sgo1_(1–130) (human) came out at 255 nM; with Sgo1_(1–155) (human), 240 nM.
For the substance “Survivin_(1–116) (from UniProt O15392 1-116) (domain or fragment)”, the equilibrium dissociation constant (Kd) with Sgo1_(1–155) (human) amounted to 408 nM.

Values taken from article PMC9253516.
